Measurements published in patent US20200317768A1 (published 2020).
Numbering of substitutions follows the chain as printed.

B1: M103205H795-MY209/M103202L889-SK1 (antibody, human IgG1, kappa)
heavy: QVTLKESGPVLVKPTETLTLTCTVSGIDLSHDDISWVRQAPGKGLEWVGIISYAGSTYYASWAKGRLTISKDTSKNQVVLTMTNMDPVDTATYYCARGVPAYSHGGDLWGQGTLVTVSSASTKGPSVFPLAPSSKSTSGGTAALGCLVKDYFPEPVTVSWNSGALTSGVHTFPAVLQSSGLYSLSSVVTVPSSSLGTQTYICNVNHKPSNTKVDKKVEPKSCDKTHTCPPCPAPELLNGPSVFLFPPKPKDTLMISRTPEVTCVVVDVSDEDPEVKFNWYVDGVEVHNAKTKPREELYNSTYRVVSVLTVLHQDWLNGKEYKCKVSNTALPKPIEKTISKAKGQPREPQVYTLPPSREEMTKNQVSLTCLVKGFYPSDIAVEWESNGQPENNYKTTPPVLDSDGSFFLYSKLTVDKSRWQQGNVFSCSVMHEALHNHYTQKSLSLSP
light: DIVMTQSPATLSLSPGERATLSCTSSQSVYHANWLSWFQQKPGQPPKLLIYWASTLAYGVPSRFSGSGSGTDFTLTISSLQPEDAATYYCAGGYGGGRYAFGQGTKVEIKRTVAAPSVFIFPPSDEQLKSGTASVVCLLNNFYPREAKVQWKVDNALQSGNSQESVTEQDSKDSTYSLSSTLTLSKADYEKHKVYACEVTHQGLSSPVTKSFNRGEC
notes: Substitutions introduced into M103205H795-SG1, expressed with M103202L889-SK1 as light chain; EU numbering
B2: M103205H795-MY389/M103202L889-SK1 (antibody, human IgG1, kappa)
heavy: B1 heavy with N238T, S241L, L297Q, T328K
light: B1 light
notes: as for B1
B3: M103205H795-MY392/M103202L889-SK1 (antibody, human IgG1, kappa)
heavy: B1 heavy with N238T, L297Q, S300L, T328K
light: B1 light
notes: as for B1
B4: M103205H795-MY400/M103202L889-SK1 (antibody, human IgG1, kappa)
heavy: B1 heavy with N238T, L297Q, T328K, P333E
light: B1 light
notes: as for B1
B5: M103205H795-MY516/M103202L889-SK1 (antibody, human IgG1, kappa)
heavy: B1 heavy with N238T, S241V, S300L, T328K
light: B1 light
notes: as for B1
B6: M103205H795-MY283/M103202L889-SK1 (antibody, human IgG1, kappa)
heavy: B1 heavy with N238T, T328K
light: B1 light
notes: as for B1
B7: M103205H795-MY342/M103202L889-SK1 (antibody, human IgG1, kappa)
heavy: B1 heavy with N238L, T328K, P398M
light: B1 light
notes: as for B1
B8: M103205H795-MY340/M103202L889-SK1 (antibody, human IgG1, kappa)
heavy: B1 heavy with N238L, T328K, P398K
light: B1 light
notes: as for B1
B9: M103205H795-MY339/M103202L889-SK1 (antibody, human IgG1, kappa)
heavy: B1 heavy with N238L, L297Q, P398K
light: B1 light
notes: as for B1
B10: M103205H795-MY341/M103202L889-SK1 (antibody, human IgG1, kappa)
heavy: B1 heavy with N238L, P398K
light: B1 light
notes: as for B1
B11: M103205H795-MY388/M103202L889-SK1 (antibody, human IgG1, kappa)
heavy: B1 heavy with N238T, S241I, L297Q, T328K
light: B1 light
notes: as for B1
B12: M103205H795-MY386/M103202L889-SK1 (antibody, human IgG1, kappa)
heavy: B1 heavy with N238L
light: B1 light
notes: as for B1
B13: M103205H795-MY514/M103202L889-SK1 (antibody, human IgG1, kappa)
heavy: B1 heavy with N238T, S241V, L297Q, S300L, T328K
light: B1 light
notes: as for B1
B14: M103205H795-MY515/M103202L889-SK1 (antibody, human IgG1, kappa)
heavy: B1 heavy with N238T, S300L, T328K
light: B1 light
notes: as for B1
B15: M103205H795-MY387/M103202L889-SK1 (antibody, human IgG1, kappa)
heavy: B1 heavy with N238T, S241V, L297Q, T328K
light: B1 light
notes: as for B1
B16: M103205H795-MY380/M103202L889-SK1 (antibody, human IgG1, kappa)
heavy: B1 heavy with D270E, L297Q, T328K, P398K
light: B1 light
notes: as for B1

Biological target: T1, cynomolgus monkey FcγRIIa2 extracellular domain with C-terminal His-tag (cynomolgus monkey)
T1 construct: also called cyno FcgRIIa2; cynoFcγRIIa2
T1 chain: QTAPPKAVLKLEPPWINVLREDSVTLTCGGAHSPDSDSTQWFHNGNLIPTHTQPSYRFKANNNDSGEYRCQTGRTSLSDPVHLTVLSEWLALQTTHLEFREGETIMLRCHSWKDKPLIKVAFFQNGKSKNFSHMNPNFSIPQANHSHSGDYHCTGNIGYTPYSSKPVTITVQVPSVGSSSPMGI
Test: SPR (BIACORE), antibody captured, FcgR analyte

| Binder | Kd |
| --- | --- |
| B1 | 0.69 µM |
| B2 | 16 µM |
| B3 | 2.3 µM |
| B4 | 2.2 µM |
| B5 | 13 µM |
| B6 | 1.6 µM |
| B7 | 8.5 µM |
| B8 | 4.9 µM |
| B9 | 3 µM |
| B10 | 2.9 µM |
| B11 | 1.7 µM |
| B12 | 5.6 µM |
| B13 | 1.6 µM |
| B14 | 1.6 µM |
| B15 | 19 µM |
| B16 | 1 µM |

Biological target: T2, human FcγRIIaR extracellular domain with C-terminal His-tag (human, UniProt P12318 34-217)
T2 construct: also called human FcgRIIaR; FcγRIIa (type R)
T2 chain: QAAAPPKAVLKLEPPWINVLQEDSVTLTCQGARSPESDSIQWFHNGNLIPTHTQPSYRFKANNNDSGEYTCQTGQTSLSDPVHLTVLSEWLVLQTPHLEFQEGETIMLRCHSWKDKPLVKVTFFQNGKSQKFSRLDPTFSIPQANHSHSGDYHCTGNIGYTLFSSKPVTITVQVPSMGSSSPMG
Test: SPR (BIACORE), antibody captured, FcgR analyte

| Binder | Kd |
| --- | --- |
| B1 | 0.88 µM |
| B2 | 0.19 µM |
| B3 | 0.41 µM |
| B4 | 0.74 µM |
| B5 | 0.085 µM |
| B6 | 0.35 µM |
| B7 | 1 µM |
| B8 | 0.83 µM |
| B9 | 0.53 µM |
| B10 | 0.42 µM |
| B11 | 0.23 µM |
| B12 | 1.7 µM |
| B13 | 0.16 µM |
| B14 | 0.26 µM |
| B15 | 0.2 µM |
| B16 | 0.85 µM |

Biological target: T3, human FcγRIIb extracellular domain with C-terminal His-tag (human, UniProt P31994 43-217)
T3 construct: also called human FcgRIIb
T3 sequence: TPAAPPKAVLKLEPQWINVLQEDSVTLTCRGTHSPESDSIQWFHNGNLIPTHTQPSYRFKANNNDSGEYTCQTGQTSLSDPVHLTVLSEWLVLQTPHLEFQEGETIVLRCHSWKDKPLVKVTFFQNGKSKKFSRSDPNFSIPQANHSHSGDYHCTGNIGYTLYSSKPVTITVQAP
Test: SPR (BIACORE), antibody captured, FcgR analyte

| Binder | Kd |
| --- | --- |
| B1 | 0.5 µM |
| B2 | 1.1 µM |
| B3 | 1.7 µM |
| B4 | 2.5 µM |
| B5 | 0.51 µM |
| B6 | 1.8 µM |
| B7 | 3.9 µM |
| B8 | 3.3 µM |
| B9 | 2.8 µM |
| B10 | 1.8 µM |
| B11 | 1.5 µM |
| B12 | 4.6 µM |
| B13 | 0.69 µM |
| B14 | 1.2 µM |
| B15 | 1.6 µM |
| B16 | 0.48 µM |

Biological target: T4, human FcγRIIIaV extracellular domain with C-terminal His-tag (human, UniProt P08637 17-208)
T4 construct: also called human FcgRIIIaV
Test: SPR (BIACORE), antibody captured, FcgR analyte

T4 sequence (P08637 17-208 F176V): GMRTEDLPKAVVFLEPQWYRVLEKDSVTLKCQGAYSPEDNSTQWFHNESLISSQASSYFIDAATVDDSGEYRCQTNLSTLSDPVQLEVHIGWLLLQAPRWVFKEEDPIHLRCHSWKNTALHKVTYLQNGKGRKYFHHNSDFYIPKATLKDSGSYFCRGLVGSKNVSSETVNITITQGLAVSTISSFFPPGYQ

| Binder | Kd |
| --- | --- |
| B1 | 14 µM |
| B2 | 3.5 µM |
| B3 | 8.3 µM |
| B4 | 7.8 µM |
| B5 | 6.7 µM |
| B6 | 5.7 µM |
| B7 | 25 µM |
| B8 | 17 µM |
| B9 | 5.6 µM |
| B10 | 7 µM |
| B11 | 4.3 µM |
| B12 | 24 µM |
| B13 | 8.8 µM |
| B14 | 9 µM |
| B15 | 4.7 µM |
| B16 | 10 µM |

Biological target: T5, cynomolgus monkey FcγRIIa1 extracellular domain with C-terminal His-tag (cynomolgus monkey)
T5 construct: also called cyno FcgRIIa1; cynoFcγRIIa1
T5 chain: T1 chain with T95P, A121T, K127I, S128A, N130K, N135D, Q142R
Test: SPR (BIACORE), antibody captured, FcgR analyte

| Binder | Kd |
| --- | --- |
| B1 | 0.63 µM |
| B2 | 2 µM |
| B3 | 0.3 µM |
| B4 | 18 µM |
| B5 | 0.15 µM |
| B6 | 1.4 µM |
| B7 | 5.1 µM |
| B8 | 4.3 µM |
| B9 | 3.4 µM |
| B10 | 2.5 µM |
| B11 | 2.2 µM |
| B12 | 5.2 µM |
| B13 | 0.26 µM |
| B14 | 0.14 µM |
| B15 | 2.3 µM |

Biological target: T6, cynomolgus monkey FcγRIIIaS extracellular domain with C-terminal His-tag (cynomolgus monkey, UniProt Q8SPW2 21-206 at identity 1.00))
T6 construct: also called cyno FcgRIIIaS; cynoFcγRIIIaS
T6 chain: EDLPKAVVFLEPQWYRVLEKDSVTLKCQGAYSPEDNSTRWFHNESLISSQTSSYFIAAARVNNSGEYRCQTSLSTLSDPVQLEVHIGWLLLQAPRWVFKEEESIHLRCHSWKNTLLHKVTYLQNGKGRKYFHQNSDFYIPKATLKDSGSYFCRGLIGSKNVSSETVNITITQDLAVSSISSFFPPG
Test: SPR (BIACORE), antibody captured, FcgR analyte

| Binder | Kd |
| --- | --- |
| B1 | 2.2 µM |
| B2 | 1.5 µM |
| B3 | 4 µM |
| B4 | 24 µM |
| B5 | 3 µM |
| B6 | 2.2 µM |
| B7 | 2.6 µM |
| B8 | 2.3 µM |
| B9 | 0.76 µM |
| B10 | 0.34 µM |
| B11 | 1.6 µM |
| B12 | 2.5 µM |
| B13 | 4.4 µM |
| B14 | 3.8 µM |
| B15 | 2.5 µM |
| B16 | 2.8 µM |

Biological target: T7, cynomolgus monkey FcγRIIa3 extracellular domain with C-terminal His-tag (cynomolgus monkey)
T7 construct: also called cyno FcgRIIa3; cynoFcγRIIa3
T7 chain: T1 chain with K127I, N130K, H133P, Q142R
Test: SPR (BIACORE), antibody captured, FcgR analyte

| Binder | Kd |
| --- | --- |
| B1 | 1.9 µM |
| B2 | 1.4 µM |
| B3 | 3.9 µM |
| B4 | 3.8 µM |
| B5 | 0.79 µM |
| B6 | 4.4 µM |
| B7 | 51 µM |
| B8 | 23 µM |
| B9 | 3.8 µM |
| B10 | 8.8 µM |
| B11 | 1.3 µM |
| B12 | 16 µM |
| B13 | 1.5 µM |
| B14 | 2.9 µM |
| B15 | 1.4 µM |
| B16 | 3.3 µM |

Biological target: T8, human FcγRIIaH extracellular domain with C-terminal His-tag (human, UniProt P12318 34-217)
T8 construct: also called human FcgRIIaH; FcγRIIa (type H)
T8 sequence: T2 chain with R134H
Test: SPR (BIACORE), antibody captured, FcgR analyte

| Binder | Kd |
| --- | --- |
| B1 | 0.57 µM |
| B2 | 0.27 µM |
| B3 | 0.43 µM |
| B4 | 0.42 µM |
| B5 | 0.22 µM |
| B6 | 0.14 µM |
| B7 | 0.37 µM |
| B8 | 0.31 µM |
| B9 | 0.41 µM |
| B10 | 0.26 µM |
| B11 | 0.33 µM |
| B12 | 0.81 µM |
| B13 | 0.35 µM |
| B14 | 0.22 µM |
| B15 | 0.34 µM |
| B16 | 0.43 µM |
